According to patent US20120308580A1 (NATIONAL UNIVERSITY OF SINGAPORE, published 2012):

How the values were obtained:
[1] = target: T1, HBV env183-191 peptide / HLA-A201 complex on cells (human; Hepatitis B virus)
[2] = target: T2, HBc19-27I peptide / HLA-A201 complex on T2 cells (human; Hepatitis B virus); assay: flow cytometry, peptide pulsed T2 cells (FIG. 8A, peptides of Table 4)
T2 construct: whole, on cells

[3] = target: T3, FEC11 (EBV) peptide / HLA-A201 complex on T2 cells (human; EBV); assay: as above
[4] = target: T4, HBV pol, 455-463 peptide / HLA-A201 complex on T2 cells (human; Hepatitis B virus); assay: as above
T4 construct: whole, on cells

[5] = target: T1, HBV env183-191 peptide / HLA-A201 …; remark: listed apart in the source
[6] = target: c18-27 peptide alone (free, not on HLA-A2) (Hepatitis B virus); assay: pre-incubation with free peptide, then flow cytometry on the specific target
[7] = target: T5, Mage3, 271-279 peptide / HLA-A201 complex on T2 cells (human); assay: flow cytometry, peptide pulsed T2 cells
T5 construct: whole, on cells; also called Mage3-271-79

[8] = target: T3, FEC11 (EBV) peptide / HLA-A201 complex …; assay: flow cytometry, peptide pulsed T2 cells
[9] = target: T6, HBV env, 348-357 peptide / HLA-A201 complex on T2 cells (human; Hepatitis B virus); assay: flow cytometry, peptide pulsed T2 cells
T6 construct: whole, on cells

[10] = target: T4, HBV pol, 455-463 peptide / HLA-A201 …; assay: flow cytometry, peptide pulsed T2 cells

Binder	EC50 (read off the curve) [1] [µg]	binding result [2]	binding result [3]	binding result [4]	binding result [5]	binding result [6]	binding result [7]	binding result [8]	binding result [9]	binding result [10]
E183/A2 mAb (antibody, V domains shown, also called HBe183-191 antibody; antibody against HBe183-191) VH: QVQLQQPGAEFVKPGASVRLSCKASGYTFSSYWMHWVKQRPGQGLEWIGEIDPSDSYTNYNQKFKGKATLTVDKSSSTAYMQFSSLTSEDSAVYYCATSGYDVGVDYWGQGTTLTVSS VL: DIQMTQSPASLSASVGETVTITCRASENIYSYLAWYHQKQGKSPQLLVYIAKTLAEGVPSRFSGSGSGTQFSLKIDSLQPEDVGSYYCQHHYGTPYTFGGGTKLEIK	~0.01	no binding (tested: 1 µM peptide; 0.5 µg mAb)	no binding (tested: 1 µM peptide; 0.5 µg mAb)	no binding (tested: 1 µM peptide; 0.5 µg mAb)	–	–	–	–	–	–
c18/A2 mAb (antibody, V domains shown, also called HBc18-27 antibody) VH: QVQLQQSGPELVKPGASVKISCKASGHTFTSYDINWVKQRPGQGLEWIGWIYPGDGSTKYNEKFKGKATLTADKSSSTAYMQLSSLTSENSAVYFCARRDYGYSYAMDYWGQGTSVTVSS VL: DIQMTQSPASLSTSVGETVTITCRASGNIHNYLAWYQQKQGKSPQLLVYNAKTLADGVPSRFSGSGSGTQFSLKINSLQPEDFGSYYCQHFWSTPFTFGSGTKLEIK	–	no binding (tested: 1 µM peptide; 0.5 µg mAb)	–	–	no binding (tested: 0.5 ug mAb in 50 ul)	no binding (tested: 1 uM)	no binding (tested: 1 µM peptide; 0.5 µg mAb)	no binding (tested: 1 µM peptide; 0.5 µg mAb)	no binding (tested: 1 µM peptide; 0.5 µg mAb)	no binding (tested: 1 µM peptide; 0.5 µg mAb)
